Reference: article PMC13147315

What was measured:
N_CTD = N_CTD (SARS-CoV-2 (Wuhan), UniProt P0DTC9 247-364); assay: MST; conditions: protein: recombinant, tags: 6xHis, chain copies: 2
[1] = target: T1, N_WT (nucleocapsid, Wuhan) (SARS-CoV-2 (Wuhan), UniProt P0DTC9 1-419); assay: MST; conditions: protein: recombinant, tags: 6xHis, chain copies: 2
[2] = target: T1, N_WT (nucleocapsid, Wuhan); assay: EMSA; 15-500 nM N; conditions: protein: recombinant; tags: 6xHis; chain copies: 2; label: Cy5 on RNA2; 3' overhang 11 nt on strand 1
[3] = target: T1, N_WT (nucleocapsid, Wuhan); assay: EMSA; full binding at about 500 nM N; conditions: protein: recombinant; tags: 6xHis; chain copies: 2
[4] = label: Cy5 (Methods EMSA: Cy3), blunt

B1: dsRNA22 (dsRNA)
RNA 1: CAUAAUAAGAGGCUGGAUUUUUGGUA
RNA 2: UACCAAAAAUCCAGCCUCUUAUUAUG
For B1, the Kd (N_CTD; label: Cy5, blunt) was 1.84 ± 0.252 µM and the Kd ([1]; label: Cy5, blunt) was 0.344 ± 0.132 µM.

B2: hybridized RNA2 (RNA2-Cy5/RNA7) (dsRNA)
RNA 1: CUGCACCUCAUGGUCAUGUUAUGGUU
RNA 2: GACCAUGAGGUGCAG
B2: binds [2].

B3: ssRNA22 (ssRNA)
RNA: CAUAAUAAGAGGCUGGAUUUUUGGUA
For B3, the Kd (N_CTD; label: Cy5) was 2.73 ± 0.588 µM and the Kd ([1]; label: Cy5) was 0.291 ± 0.121 µM.

B4: ssRNA3 (ssRNA)
RNA: AACCAUAACAUGACCAUGAGGUGCAG
In the case of B4, the Kd (N_CTD; label: Cy5 (Methods EMSA: Cy3)) is reported as 4.29 ± 0.427 µM and the Kd ([1]; label: Cy5 (Methods EMSA: Cy3)) is reported as 1.26 ± 0.722 µM.

B5: dsRNA20 (dsRNA)
RNA 1: UUCGUCCGGGUGUGACCGAAAGGUAA
RNA 2: UUACCUUUCGGUCACACCCGGACGAA
With B5 the Kd (N_CTD; label: Cy5, blunt) was 3.3 ± 0.394 µM and the Kd ([1]; label: Cy5, blunt) was 0.398 ± 0.157 µM.

B6: DNA of Fig. S2F (mixed)
DNA 1: TTTCGGCCTCATCAGGTCATCGCTTTAGTGAGGGTTAATAAA
DNA 2: TTATTAACCCTCACTAAA
B6: binds [3].

B7: ssRNA20 (ssRNA)
RNA: UUCGUCCGGGUGUGACCGAAAGGUAA
With B7 the Kd (N_CTD; label: Cy5) was 8.54 ± 4.51 µM and the Kd ([1]; label: Cy5) was 0.425 ± 0.186 µM.

B8: dsRNA3 (dsRNA)
RNA 1: AACCAUAACAUGACCAUGAGGUGCAG
RNA 2: CUGCACCUCAUGGUCAUGUUAUGGUU
B8 showed a Kd (N_CTD; [4]) of 2.55 ± 0.567 µM and a Kd [1, 4] of 0.647 ± 0.151 µM.
